Results from the DeepSol protein solubility set.

test: soluble on expression in E. coli; label from the status in PepcDB or PDB records

Soluble on expression in E. coli, not soluble:
MGSDKIHHHHHHMLNPREIRTIEDAKRIVEERQLTHVKVGLFDIDGVMLGKYMSRNKFFSALEHGFAFCDVILGWDSKDKLYDNVKYTGWHTGYPDASVRIVPSTCREILFEENQLLFMAEFSQAAEAICPRGILRRVINKAAGMGYDVYAALEYEFFVFDETPDSVRAKGFRNLKPVTPDNFGYSIIRNTVHAEFYHQILTMAEKMDFPIEGLHTETGPGVLEAAIAVDDAEAAGDKAALFKTFMKILAQRNNKMATFMAKWSGDYPGQSGHIHLSLRDRDGGKSAFYESGREYNMSKIQRHFLAGQQKLMPEFLAMLSPTVNSYSRLIPGYWAPTEATWGVENRTTALRVIPGSDKSQRIEYRLGSADANPYLALAAAIGSGLYGIENELEPEAEVKGNSYEQHHSPALALPRTLWESAQNLKNSSAAYELFGQEFVEHFAASREWEEREFRKHITDWELDRYFEII, MGSDKIHHHHHHMLNQQWLTTFIKLVEVGHFTHTAEQLFMTQPGVSQHIKKLEQQVGVDLLIRIGKSFELTEAGIVLYQQALVWQQQQQQVLSQLAVDDEHVGDCRLACSGSMALLLYPHLIDYQLPYSQLQIYLEAAPNKRIIDSVMTNTIDVGIITQPINMDELVVTPLAAQSLCLVLPQSYLHQSVTFEQLMELGMVSHPDAMHYWSQIVGQYFTKKQALALQVPIRSYVNQLNQILVPVAKGLAFAVLPQFAVDHFGQQQHIRVASFTTEQANNVVVSEPLFIIYKKHRPLARRYGPIIDKIKQLVK, MGSDKIHHHHHHMLQIKRKINATQSLMKITRAMEMVARAKVRKIESEYQKFKPFYDEVKRLWALVPAESLDPIFFEEGNRDLIVVITSDMGLCGSFNSEILREAERVISESRDPHLILVGLKAINHFKDGKVLKMYDRFYEIPDFRNGSTIVEDILNFLDGKPARVRVIFSRFKNVLIQRPEVHELLPIKKEEKKREDFEYEPRLEQIAPLIFHYYLSATLMELMFQTKIGEYYARQNAMKNATDNAQEVIRELTLAYNKARQASITQELIEIVTGAEALKEIEK, MGSDKIHHHHHHMLQLPDSPPRMKTLVSVDESYKLCRHLTAKYAKTFYLGTLLMSPVKRQSIWSIYAWCRRTDELVDGPASAITTPETLDLWEQQLESIFAGRPLENYDVALVDTLQRFPMDIQPFRDMIAGQRMDLYRSRYETFEDLYLYCYRVAGTVGLMSTEVMGVDSTLYTAPWHQNKQPYLPTEEAIALGIANQLTNILRDVGEDAKRGRIYIPLEDLEKFNYTEQDFFKGVVDDRWRALMRFQIERARQFYTTSNQGITYLASDARWPVWAASMLYGQILEVIERNDYDVFSRRAFVPQWKKLRTLPLAWMRSQVL, MGSDKIHHHHHHMLQNPIHLRLERLESWQHVTFMACLCERMYPNYAMFCQQTGFGDGQIYRRILDLIWETLTVKDAKVNFDSQLEKFEEAIPSADDFDLYGVYPAIDACVALSELVHSRLSGETLEHAVEVSKTSITTVAMLEMTQAGREMSDEELKENPAVEQEWDIQWEIFRLLAECEERDIELIKGLRADLREAGESNIGIIFQQ, MGSDKIHHHHHHMLQVTDVSLRFGDRKLFEDVNIKFTEGNCYGLIGANGAGKSTFLKILSGELDSQTGHVSLGKNERLAVLKQDHYAYEDERVLDVVIKGHERLYEVMKEKDEIYMKPDFSDEDGIRAAELEGEFAEMNGWNAEADAANLLSGLGIDPTLHDKKMAELENNQKIKVLLAQSLFGEPDVLLLDEPTNGLDIPAISWLEDFLINFDNTVIVVSHDRHFLNNVCTHIADLDFGKIKVYVGNYDFWYQSSQLAQKMAQEQNKKKEEKMKELQDFIARFSANASKSKQATSRKKQLEKIELDDIQPSSRRYPFVKFTPEREIGNDLLIVQNLSKTIDGEKVLDNVSFTMNPNDKAILIGDSEIAKTTLLKILAGEMEPDEGSFKWGVTTSLSYFPKDNSEFFEGVNMNLVDWLRQYAPEDEQTETFLRGFLGRMLFSGEEVKKKASVLSGGEKVRCMLSKMMLSSANVLLLDEPTNHLDLESITAVNDGLKSFKGSIIFTSYDFEFINTIANRVIDLNKQGGVSKEIPYEEYLQEIGVLK, MGSDKIHHHHHHMLRGMYTASGAMQALQRQQEMLSNNLANARTPGFRADQASLRTFPEMMIQQSGVNEQSGVRSRGTVGKLATGVFMQAATPNFALGSITETGNATDLQISSLEGAALFTIRHADPATGEEETLYTTNGQFAVGQDGLLRTTENDLVLGDAGQPLNVVNEDFTVSADGAVTDGNGQAIGNLGLVVTNQPETLERTGNGLFRSPDALNGGAIKVDQGVLELGNVEVEQTMTEMNAGLRQFEANQKVIQAYDRTAEKAVSEIGRVR, MGSDKIHHHHHHMLSNKNKIRKLLNGIETGDPDAALVVNEQKYIQHNPHTKEGNIGLAELFKQIAKTGPRVNMIRVFEDKDFVFAHMEYHFSTLKVAFEVFRFEDGFAVEHWDNMQLMQKVNASGRSMLDGYLITEDHDLTEFNRSRVSLFANEILIKRKLDLLIDFVCDDNFIQHSPLLADGISALRSTLSATSKQKYKITYSKIHRVLAEGNFVLSVSEGLMDEKHCSFYDLYRIEKGKIVEHWDTIEPIPPRTEWKNDNGKF, MGSDKIHHHHHHMLSRILEKYRENGIQGIVLALISRFPGVRAVCVYYVYRLPFDKLVRKQLSVGNLKVVQVKSDSMGDLIRVQDKPDIFGERFQMGHYGFVAYVNNDPVAYLWGQEGPVHVERRFGFEVPIKDNQVFYYDSYTIPEWRKSGVGRALIQESIDFFKNGLGKSELIAIIETGNLVSQKTYERMGFVREAMHIHLDIIGKKINKQLARMVTQ, MGSDKIHHHHHHMLSRTADHLFWMARYTERAENTARMLDVNYQTSLLPQSAEVAEQGWWAMLDISELTNAFDHKYGLLTRDDVIDFMVRDMTNPSSIMSCLRAARENARAVRGSLTTEVWETVNTTWLDVQRMIADGELQEDPSRFFEWVKFRSHLARGVQFGTMLKDDAFHFMRLGTFLERADNTARILDVKFQASGSDDSDPNREQNDFYHWAAVLRSVSGFEVYRKVYRAVITPQRVAELLILRPDMPRSLVSSMDEVVAILAMVCNHQSGETERQAGKLHADLKFARIDDIFAVGLHAFLTSFLERIGDIGNGISRDFLVPLQAA, MGSDKIHHHHHHMLSRVAENLYWMARYLERTEDMARLINATTLLLLDLPQGAEFGWDILLQVTGDAKLYMEHYGTPEEGRIMRFLIADERNPNSVMAAIHQARENCRTFRDLLPAEFWERLNTLFLFVREHAGTSSDSRHARYAFLNEVISRRHALVGLLISSMSQDNVYQFIKLGRNMERADMTTRIVDVTSAVILPQDQGLQKTTTSSLWLGVLRALSAFEMYRRHVSVQVRSNQVVDYLLKDNKFPRSMKYCLGEMEVALAYLPNAGIPAEAVRRARRRLDALKLANLRPDLLHEYLDQAQKDLAMVHRTIHGTYFARDDTGFDGVPSGLLLNAAQA, MGSDKIHHHHHHMLSVSSLDGEWNITEVDGQKISTERMPFIGFDVAQKRIYGNSGCNRMMGSFEADSLKPGTLKFGQIGSTRMMCPDMKTEQMVLGALDKVTSFQTVSDKPDVITLCNQDGQPLMTLEKKAAPEVSLSDLSGEWVIELVNGKKIVGTAEVTPFIGFNLDESRIYGNVGCNTINGALMQEDGKPNSLRFDNVATTMMMCPDMETETIVLNALNETKSFSMKDDKVYLLGENGNELLVLKKQ, MGSDKIHHHHHHMLTTCKSVLKLPYLEKIKVVAGEKGLNRIITWVQVVEYPEYSKWLKGGELILISGIAIKNNINSLVNFIRDINSRSLSGIVISIGPYIKEIPKEVIEIGNQLDFPIFEIPFEVKFIDVSQSICKAIFANKVNQESMENFMKDIIFRDFTFSEDILSRAVAYGYNPKTKYISFVVELHNEKDMLECDLKTKQYIEQIVIEVLGEWNKRSIHIMQYNSIILMLPKNEKRTIKNIAMNIIEEIISKAKNTSVNIGVGGEFSELRDFKISVSEAHRCLKVLKLNNDNNTVISYDELGIYKLFFQMDNLEEMKKFYLDVLKKLIDYDSKNTTELMNTLEMYIKESTNINRTAEKLFIHRNTLKYRIRRIEEITKCSLKDVNVLFNFDTALKIKKFLTMENAV
